Results: article PMC4764120, “Crystal Structure of Alcohol Oxidase from Pichia pastoris” (PLoS ONE, 2016)

Target: the molecule itself
Test: crystal structure; X-ray, 2.35 Å, space group P21, eight monomers in the asymmetric unit; crystals grown at 4°C in 100 mM HEPES pH 7.5, 200 mM CaCl2, 33.3% PEG 400; interfaces analysed with PISA

B1: alcohol oxidase AOX1 from Pichia pastoris (enzyme, UniProt P04842 1-663, looked up)
chain: MAIPEEFDILVLGGGSSGSCIAGRLANLDHSLKVGLIEAGENNLNNPWVYLPGIYPRNMKLDSKTASFYTSNPSPHLNGRRAIVPCANVLGGGSSINFMMYTRGSASDYDDFQAEGWKTKDLLPLMKKTETYQRACNNPDIHGFEGPIKVSFGNYTYPVCQDFLRASESQGIPYVDDLEDLVTAHGAEHWLKWINRDTGRRSDSAHAFVHSTMRNHDNLYLICNTKVDKIIVEDGRAAAVRTVPSKPLNPKKPSHKIYRARKQIVLSCGTISSPLVLQRSGFGDPIKLRAAGVKPLVNLPGVGRNFQDHYCFFSPYRIKPQYESFDDFVRGDAEIQKRVFDQWYANGTGPLATNGIEAGVKIRPTPEELSQMDESFQEGYREYFEDKPDKPVMHYSIIAGFFGDHTKIPPGKYMTMFHFLEYPFSRGSIHITSPDPYAAPDFDPGFMNDERDMAPMVWAYKKSRETARRMDHFAGEVTSHHPLFPYSSEARALEMDLETSNAYGGPLNLSAGLAHGSWTQPLKKPTAKNEGHVTSNQVELHPDIEYDEEDDKAIENYIREHTETTWHCLGTCSIGPREGSKIVKWGGVLDHRSNVYGVKGLKVGDLSVCPDNVGCNTYTTALLIGEKTATLVGEDLGYSGEALDMTVPQFKLGTYEKTGLARF
notes: Alcohol oxidase AOX1, Pichia pastoris, UniProt P04842, 663 residues as printed; identified by mass spectrometry as the host's own protein; the final crystallographic model holds residues 2 to 663 of each monomer; No tag: the protein comes from the expression host itself; also called methanol oxidase AOX1
  stoichiometry N: 8
